Laboratory results from IntAct's records for PubMed 18034774.

B1: Ras-related protein Rab-5A (Homo sapiens), P20339 (parent)
chain: MASRGATRPNGPNTGNKICQFKLVLLGESAVGKSSLVLRFVKGQFHEFQESTIGAAFLTQTVCLDDTTVKFEIWDTAGQERYHSLAPMYYRGAQAAIVVYDITNEESFARAKNWVKELQRQASPNIVIALSGNKADLANKRAVDFQEAQSYADDNSLLFMETSAKTSMNVNEIFMAIAKKLPKNEPQNPGANSARGRGVDLTEPTQPTRNQCCSN
partner: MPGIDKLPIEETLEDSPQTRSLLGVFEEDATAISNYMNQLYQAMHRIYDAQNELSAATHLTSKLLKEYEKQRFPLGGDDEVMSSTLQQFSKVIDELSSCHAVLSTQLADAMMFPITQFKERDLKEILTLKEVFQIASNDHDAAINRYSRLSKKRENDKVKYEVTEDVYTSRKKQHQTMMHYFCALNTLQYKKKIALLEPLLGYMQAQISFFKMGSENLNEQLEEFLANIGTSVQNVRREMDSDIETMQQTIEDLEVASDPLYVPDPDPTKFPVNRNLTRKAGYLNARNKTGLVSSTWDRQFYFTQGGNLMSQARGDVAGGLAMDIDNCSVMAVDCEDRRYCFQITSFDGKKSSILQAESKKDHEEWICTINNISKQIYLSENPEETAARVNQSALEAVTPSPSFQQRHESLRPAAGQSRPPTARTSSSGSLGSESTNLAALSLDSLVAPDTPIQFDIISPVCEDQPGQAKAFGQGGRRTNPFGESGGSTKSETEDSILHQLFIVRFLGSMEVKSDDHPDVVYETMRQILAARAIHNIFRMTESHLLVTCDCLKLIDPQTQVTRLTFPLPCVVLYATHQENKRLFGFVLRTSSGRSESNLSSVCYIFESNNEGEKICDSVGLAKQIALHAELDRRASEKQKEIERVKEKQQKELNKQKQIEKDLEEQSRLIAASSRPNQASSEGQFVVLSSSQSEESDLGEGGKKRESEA

Variants of: B1
Details: with dp13a_human APPL1, Q9UKG1

Variant	effect of a mutation on the interaction
MASRGATRPNGPNTGNKICQFKLVLLGESAVGKNSLVLRFVKGQFHEFQESTIGAAFLTQTVCLDDTTVKFEIWDTAGQERYHSLAPMYYRGAQAAIVVYDITNEESFARAKNWVKELQRQASPNIVIALSGNKADLANKRAVDFQEAQSYADDNSLLFMETSAKTSMNVNEIFMAIAKKLPKNEPQNPGANSARGRGVDLTEPTQPTRNQCCSN [S34N]	disrupting interaction strength
